These results are taken from a protein production outcome set (Wang et al. 2014).

This series is described as follows: label from the status in PepcDB records.
With “MALDLNDVALFVQVVRSGSFAQAARHLGMPSNTVSRKVQQLEIQLGTRLLHRSTRKLVLTQAGEDFHERCVGAVDGLMDAAEQLVSGREEPGGRLRIAAMADFFDFFSMEWVADFLAEYPRVQLEFVLSDERADLIADRLDIAFRGGPLQDSGYVGRQLIEEGHDTMVASPAYIAAHGMPDSLQSLHGHYCVSTAHPGGSTVWRLLGPDAKMHEVQMASRFNANTAQALRKATLAGLGIALLPATLIRSDLRDGRLVPVLTQYQRTSHGLHVLYPSRQHLPPAVSAFIALVMEKLRDKAFAAQ”, the protein production result is reported as “failed”.

Turning to “MALEIKILDYGDIELESSFLVLGRDCGRTRRVLTLGFLILGGKYPVVVDTGYRSNQIMETLGMRGLQYHEHMIENQLARHGVRMGDVRFVCHTHLHIDHAGKDDLFPMNTTVVLNRKELEYSVSGLMHPQYPAPDIKHLIDRLHTKSALRFLDLEITGPIELMPGVYCDAANAHTEGSMNIIVETADGIATICGDVIYDFNDQIVTPFNEIHDWEPRTTGNHGTSKRAEKASIKKLLSNSRYLLPVHDRPAKIEGGMVVGRLHDQVPGPIVQSLPPRNWFPA”, the protein production entry is recorded as “failed”.

For the sequence “MALFIPTRLVSALALVGVSGLMLGCGSSGGGSNGTTASSAKAASSTPVAISSVAASSTAAVAGNIKLNQLGFLPESAKWAVVPAGVAASFTVINATTNAEVFSGNLSVAATWSASEESVKLADFSSVKTPGDYLLRVEGVNDSYPFTIANDVYSALTAASIKAFYFNRNSAELLATHAGMFARPPGHPDTQVLVHVSAASAARPAGTIISSPKGWYDAGDYNKYIVNSGIATYSLLAAYEHFPDIFNGQNLNIPESGDALPDLLNETLWNLEWMLSMQDPNDGGVYHKLTNKNFDGTVMPHQATSERYVVQKTTAAALDFAAVMATASRVVAQYESQLPGMSAKMLAAAESAWNWAVANPAITYKQPDDIKTGEYGDGNLADEFFWAAAELYITSKKDAYYTAMKPTETVATVPSWGDVRSLGWISLAHHRDNLTAVADKQLIANRIDGLAANLQSVWATSAYRVTMQKNDFVWGSNSVALGQAMMLVQGYRLNGKREYLDAAQAMLDYVLGRNATDMSFVTGYGDKSTLHPHHRPSEADGIVEPIPGFIAGGPQPGQQDKSGCSVSYPSNIAAKSYLDNWCSYASNEIAINWNAPLVYVSAAIQALTPK”, the protein production result is listed as “failed”.

Consider “MALHPTDYFRKERIFVDRETCIDNFRRFIQNSNNQDYNALFYYGIAGIGKSKLQHKLQNILNTEYPEMLWVSMDLENDTHRNVSTFLIALRNKIQKKCNVRFYKFNLAHAIFSKKSRPDIPLNKETYPMLKEDGFFYEILNSLNETAFGPFISIPVKRIVDIINQAPGNVRRHFGELPIDINKLESMEAHEIEKKLPGIFAADFTGSLGTNSRACIFIDTYEAIWKGWRGIGSFSEKDKWIRKCLIPNMPGVSWVICGRKQIKSLWIKDEQDWEMCMKEYPIEDLPEEYSEQFLKEYIEEEDIRSVIVKASEGVPCYLNLSVDTYEQVSRIKKPEVKDFPNTKIEVFEKFVKYLDNNEKRTLYILSAPNSWDRNLFKKLINEFNPTYSIYEFSDLIKYSFVKKITDEKFSLHQLMRKNLQEYQDPTYRKDVHLFLHEYYSNKIKDVDVRSITQEHEISLIEAYYHAREVLKFEDLGGWIAKYTEPFNEAGYWKTIYPMIEDFAEILKEKFGPDNIYYGIFVRKLAFLNEDRGKYNEAIFYYQQVLKIFEKNMGKKILENNDLVVDDHSIAMVTNDLANCYLSIGEYEKALTLQQNSLKTVQNKVNKDPLYIALLQQNIALTYQYLGQYNKAMELCQEALTVREACLGEEDLEVAKTAENLAVIHQQLGNYKEAFALAKRALNIREKKLGSKHPLVATNLSSLGVLCIIMGNLEEGLKYNQRAVKIAEERFEGDHISVAETLSNLGATYQYMLRYDDALEAYQRALNITEHSLGLENPKLVNILNNIAETYRKMENYEKALEFYQRALDIARNHLGKEHPTIALIMNNLGRLYMNTKEFDKAHTICQQALDIRGKTLGTDHVDFAITSLDLGIIYGCVGRRDYALPLLEHSLRIFEQKLGSDHIYTKNAKLVVDTLKESR”, for which the protein production result was “failed”.

As to “MALILTFLGKSGVARTKIAIAAAKLLASQGKRVLLAGLAEPVLPLLLEQTLTPDPQQIAPNLEVVQFQSSVLLERNWEEVKKLEAQYLRTPIIKEVYGQELVVLPGMDSALALNAIREYDASGKYDAIVYDGTGDAFTLRMLGLPESLSWYVRRFRQLFVNSDLGKTIAESPLIQPLISSFFNVNWTADNFAQPTNQVNNFLDKGKEALADPKRVAAFLVTTADPLEVVSVRYLWGSAQQIGLTIGGVIQVSSQTEGDLSAEFTPLSVTVVPDVTKGDWQPLIDALPNFVEQAEQAPKPITIDTHNRQVRLFLPGFDKKQVKLTQYGPEVTVEAGDQRRNIFLPPALSGRPITGAKFQNNYLIISFLEHHHHHH”, the protein production entry is “not failed”.

In the case of “MALKEAHQPQTQPLWHQLGLVLAKHFEPQDAKAVLQLLRQEHEERLQKISLEHLEQLAQYLLAEEPHVEPAGERELEAKARP”, the protein production entry was “failed”.

With “MALLMSVKRQLYLWHRWLGIVACLFMALWFVSGVVMLYVGYPKLTPAERLAHLPALPAGCCAELPEHWAQQPLKALRLTSLGGRAHHLLELADGRRVILDAASGEPLARADAAWALANARQYAGEAGLAYLGTVDEDMWTHSRALDGDRPLHHVQVDDTAGTWLYLSSRTGEVVRDATAQERAWNWVGAWLHWLYPLRGGFGFDNGWRTLVIGLSLGATVMALLGMTVGILRLRLRKRYRSGSCSPYPGGWLRWHHIGGLLFGTVLVLWVFSGLMSMRPWGVTDSRSQLAPQALRQGPLRAMDIGQTVAQAMASLGREPGFNPVEIQWQRLGGDTFLVARNAAGDSRILEAGAPPARALSEQRLLTAARAMAAGVVVQANWQGHYDAYYFTRDAQSMYGFQSRPLPVLRLRFDDPASTWVYLDPASAEVVASHDARQRAGRWLFNLLHSWDLQPLLQRPVLREGLIIALSIGGLVVSLSGVVLGWRRLRRMTARVRG”, the protein production entry is on record as “failed”.

With “MALMTMVQALNRALDEEMAKDPRVVVLGEDVGKRGGVFLVTEGLLQKYGPDRVMDTPLSEAAIVGAALGMAAHGLRPVAEIQFADYIFPGFDQLVSQVAKLRYRSGGQFTAPLVVRMPSGGGVRGGHHHSQSPEAHFVHTAGLKVVAVSTPYDAKGLLKAAIRDEDPVVFLEPKRLYRSVKEEVPEEDYTLPIGKAALRREGKDLTLIGYGTVMPEVLQAAAELAKAGVSAEVLDLRTLMPWDYEAVMNSVAKTGRVVLVSDAPRHASFVSEVAATIAEDLLDMLLAPPIRVTGFDTPYPYAQDKLYLPTVTRILNAAKRALDY”, the protein production entry was “not failed”.

As to “MALPRSEDGLVLMWSGGKDAMLALDVLHSQSPRRVGALLTTVTADEERVTMHGTPLSLVERQADALNVPLHVMRVPPQPPNEVYEARLEAALTPLLENGFSTVVAGDLFLDDVRAYREALIESVGATALFPLWGRDTTWLAQRFSTRGYRAVVTAVDTTQLDSSFVGRTYDDSFLEDLPDAVDPCGEKGAFHTFVSDGPPFAASVPVAETGRDTTGRIHTVRLRATGEEA”, the protein production result is reported as “failed”.

In the case of “MALRLAVPAMTAQLPPGVTHVDCSTLDMPNAYVVVDDNETTLVDAGWPGDEQTVRDGLHTAGVEPGDIDRVLVTHYDADHVGTLARLTPALDAPVYVHERDAPYVAGDRLPPWTARNGIGALHRLYYRRLDLPDLPIRAVVDGDDIGGFHAYHTPGHTPGHVAYVHEDLSVAFLGDLAYGLGDRLKPTGWLTSSDAAAVESSVRSLCRRAPAFEYACPGHGPPLPDGDDRLAEALP”, the protein production entry is “failed”.

Take “MALSSAPILITGASQRVGLHCALRLLEHGHQVIISYRTEHASVAQLRQAGAHTLHGDFSSEASIMAFIEQLKSHTSSLRAIVHNASEWLAETPGDEAENFTRMFSVHMLAPYLINLHCEALLHASDVADIVHISDDVTRKGSSKHIAYCATKAGLESLTLSFAARFAPLVKVNGIAPALLMFQPKDDAAYRANALAKSAMGIEPGAEVIYQSLRYLLDSTYVTGTTLTVNGGRHVK”: the protein production result was “failed”.

For the sequence “MALSTEKKVGFFFMAGLVVLGVMLELGERWNPFEKNLPYVTYLSSTTGLKVGDPVRLAGVEVGKITRIDIEDGRVKVGFEVKPGTRIKTDSVATIRLTNLLGGQFLGISFGTQTADILAPGSEVKSREIANIDIIVDNVSDLTKDARTFLNDLNTNQNEVLGKISTMLDENRGNLKGAVQNLNSITAKMDRGEGSLAMLLNDKALYQNTNELATSLKTVTGKIERGEGSLGKLVNEDALYVEAKGALAELNAGAKDIKEIAAKINKGEGSVGKLVHDEALYNELRDASKNISDVARKINEGQGTLGKLVNDDKLYRDTAAAMKKLDKAADGLSDSGPISVLGSVVGTLF”, the protein production result is on record as “failed”.
